Sequences and labels used below:
T1: recombinant murine midkine (muMK) (murine, UniProt P12025 23-140)
T1 construct: also called murine MK; Murine MK
T1 sequence (looked up): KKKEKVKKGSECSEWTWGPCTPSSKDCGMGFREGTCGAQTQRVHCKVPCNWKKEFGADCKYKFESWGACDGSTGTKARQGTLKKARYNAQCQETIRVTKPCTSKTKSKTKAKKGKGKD

T2: recombinant human midkine (huMK) (human, UniProt P21741 21-143)
T2 construct: also called human MK; Human MK
T2 sequence (looked up): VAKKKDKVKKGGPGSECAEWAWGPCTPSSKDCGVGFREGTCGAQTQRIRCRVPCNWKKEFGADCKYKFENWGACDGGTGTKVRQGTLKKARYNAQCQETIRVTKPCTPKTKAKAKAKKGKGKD

B1: IP14-H5L2 (antibody, V domains shown)
VH: QVQLVQSGGGLVQPGGSLRLSCAASGQSFSSYWMNWVRQAPGQGLEWIGMIHPSDSETILNQKFKDKATLTVDISKNTAYLQMNSLRAEDTAVYYCSSWSAKRGDFWGQGTLVTVSS
VL: EIVLTQSPATLSLSPGERATLSCRASESISNNLHWYQQKPGQAPRLLIKYASQSISGIPARFSGSGPGTDFTLTISSVEPEDFAVYYCQQSNSWPLTFGGGTKLEIKR
notes: also called Hv5 Lv2
B2: IP14-H5L4 (antibody, V domains shown)
VH: B1 VH
VL: EIVLTQSPDFQSVTPKEKVNITCRASESISNNLHWYQQKPHQSPKLLIYYASQSISGVPSRFSGSGSGTDFNLTINSVEAEDAATYYCQQSNSWPLTFGGGTKLEIKR
notes: also called Hv5 Lv4
B3: IP14-H2L2 (antibody, V domains shown)
VH: QVQLVQSGAEVKKPGASVKVSCKASGQSFSSYWMNWVRQAPGQGLEWIGMIHPSDSETILNQKFKDKATLTVDISTSTAYMELSSLRSEDTAVYYCSSWSAKRGDFWGQGTLVTVSS
VL: B1 VL
notes: also called Hv2 Lv2
B4: IP14-H1L8 (antibody, V domains shown)
VH: B3 VH with A16H, L86P
VL: B1 VL with E1D, G41H, K49Y, I58V, P67S, G100Q, L104V
notes: also called hIP14-H1L8; Hv1 Lv8
B5: IP14-H5L3 (antibody, V domains shown)
VH: B1 VH
VL: B1 VL with E1D, K49Y, V78L
notes: also called hIP14-H5L3; Hv5 Lv3
B6: IP14-H1L1 (antibody, V domains shown)
VH: B3 VH with A16H, L86P
VL: B1 VL with T20N, G41H, T72N
notes: also called Hv1 Lv1
B7: IP14-H2L3 (antibody, V domains shown)
VH: B3 VH
VL: B1 VL with E1D, K49Y, V78L
notes: also called hIP14-H2L3; Hv2 Lv3
B8: IP14-H6L1 (antibody, V domains shown)
VH: B1 VH with Q13K, G16H, Q43K, T71S, S75A, T78S
VL: B1 VL with T20N, G41H, T72N
notes: also called Hv6 Lv1
B9: IP14-H5L7 (antibody, V domains shown)
VH: B1 VH
VL: B1 VL with E1D, T20N, G41H, K49Y, I58V, P67S, T72N, G100Q, L104V
notes: also called Hv5 Lv7
B10: IP14-H2L8 (antibody, V domains shown)
VH: B3 VH
VL: B1 VL with E1D, G41H, K49Y, I58V, P67S, G100Q, L104V
notes: also called hIP14-H2L8; Hv2 Lv8
B11: IP14-H3L1 (antibody, V domains shown)
VH: B3 VH with I48M, A68V, L70M, V72R, I74T, A79V, S97A, S98R
VL: B1 VL with T20N, G41H, T72N
notes: also called Hv3 Lv1
B12: IP14-H2L7 (antibody, V domains shown)
VH: B3 VH
VL: B1 VL with E1D, T20N, G41H, K49Y, I58V, P67S, T72N, G100Q, L104V
notes: also called Hv2 Lv7
B13: IP14-H1L2 (antibody, V domains shown)
VH: B3 VH with A16H, L86P
VL: B1 VL
notes: also called Hv1 Lv2
B14: IP14-H6L4 (antibody, V domains shown)
VH: B1 VH with Q13K, G16H, Q43K, T71S, S75A, T78S
VL: B2 VL
notes: also called Hv6 Lv4
B15: IP14-H6L2 (antibody, V domains shown)
VH: B1 VH with Q13K, G16H, Q43K, T71S, S75A, T78S
VL: B1 VL
notes: also called hIP14-H6L2; Hv6 Lv2
B16: IP14-H5L1 (antibody, V domains shown)
VH: B1 VH
VL: B1 VL with T20N, G41H, T72N
notes: also called Hv5 Lv1
B17: IP14-H1L7 (antibody, V domains shown)
VH: B3 VH with A16H, L86P
VL: B1 VL with E1D, T20N, G41H, K49Y, I58V, P67S, T72N, G100Q, L104V
notes: also called Hv1 Lv7
B18: IP14-H2L1 (antibody, V domains shown)
VH: B3 VH
VL: B1 VL with T20N, G41H, T72N
notes: also called Hv2 Lv1
B19: IP14-H3L2 (antibody, V domains shown)
VH: B3 VH with I48M, A68V, L70M, V72R, I74T, A79V, S97A, S98R
VL: B1 VL
notes: also called Hv3 Lv2
B20: IP14-H1L3 (antibody, V domains shown)
VH: B3 VH with A16H, L86P
VL: B1 VL with E1D, K49Y, V78L
notes: also called hIP14-H1L3; Hv1 Lv3
B21: IP14-H2L6 (antibody, V domains shown)
VH: B3 VH
VL: EIVLTQSPSTLSASVGDRVNITCRASESISNNLHWYQQKPHKAPKLLIYYASQSISGVPSRFSGSGSGTEFNLTISSVQPDDFATYYCQQSNSWPLTFGQGTKVEIKR
notes: also called Hv2 Lv6
B22: IP14-H2L4 (antibody, V domains shown)
VH: B3 VH
VL: B2 VL
notes: also called Hv2 Lv4
B23: IP14-H1L6 (antibody, V domains shown)
VH: B3 VH with A16H, L86P
VL: B21 VL
notes: also called Hv1 Lv6
B24: IP14-H1L4 (antibody, V domains shown)
VH: B3 VH with A16H, L86P
VL: B2 VL
notes: also called Hv1 Lv4
B25: IP14 Hv0 Lv4 (antibody, V domains shown)
VH: QVQLQQPGAELVRPGHSVKLSCKASGQSFSSYWMNWVRQRPGQGLEWIGMIHPSDSETILNQKFKDKATLTVDISSNTAYMQLSSPTSEDSAVYFCSSWSAKRGDFWGQGTTLTVSS
VL: B2 VL
B26: IP14 Hv0 Lv2 (antibody, V domains shown)
VH: B25 VH
VL: B1 VL
B27: IP14 Hv0 Lv8 (antibody, V domains shown)
VH: B25 VH
VL: B1 VL with E1D, G41H, K49Y, I58V, P67S, G100Q, L104V
B28: IP14 Hv0 Lv7 (antibody, V domains shown)
VH: B25 VH
VL: B1 VL with E1D, T20N, G41H, K49Y, I58V, P67S, T72N, G100Q, L104V
B29: IP14 Hv0 Lv1 (antibody, V domains shown)
VH: B25 VH
VL: B1 VL with T20N, G41H, T72N
B30: IP14 Hv0 Lv3 (antibody, V domains shown)
VH: B25 VH
VL: B1 VL with E1D, K49Y, V78L
B31: IP14 Hv0 Lv6 (antibody, V domains shown)
VH: B25 VH
VL: B21 VL

Residue numbers refer to the chain shown, from its start.

Broadly, the EC50 is the concentration giving half of the maximal effect.

One test deals with T1, recombinant murine midkine (muMK). Nature of the test: ELISA, plate coated with muMK. The method, then:
(§1) The binding specificity and affinity of the humanised anti-MK antibodies to recombinant human MK (huMK) and murine MK (muMK) was assessed by ELISA. ELISA plates (Nunc Immuno MaxiSorp 96 well flat-bottom were coated with 100 uL of 2 ug/mL of either huMK or muMK in 2% BSA/PBS (overnight at room temperature). After washing, blocking (1 h at 37° C.), and washing again, the humanised anti-MK and chimeric antibodies described in Example 1 were analysed for binding to huMK or muMK at concentrations ranging between 3 μg/ml and 0.00004 μg/ml in 2% BSA/PBS (1 h at 37° C.). After washing, the binding of antibody was detected with goat anti-mouse IgG (Fab specific)-HRP conjugate (Sigma, Cat. No. A9917) and SigmaFast OPD substrate (Sigma, Cat. No. P9187). The reaction was stopped with 3 M HCl, absorbance read at 490 nm on a Dynex Technologies MRX TC II plate reader and the binding curves plotted. Binding affinity data for the humanised anti-MK antibodies to huMK and muMK are presented in Table 6 and Table 7 respectively, and in FIG. 3.
(An ELISA detects its analyte on a solid surface through an enzyme-linked reagent.)
Take B1: the EC50 worked out at 0.054 nM.
Same read-out and setting: under B2 stands 0.051 nM; under B3, 0.087 nM.
Same read-out and setting: under B4 stands 0.089 nM; under B5, 0.05 nM; under B6, 0.044 nM.
The same measure, in the same setting: under B7 stands 0.081 nM; under B8, 0.032 nM.
On to B9, for which the EC50 came out at 0.059 nM.
On the same count and under the same terms, under B10 stands 0.069 nM; under B11, 0.12 nM.
Same read-out and setting: under B12 stands 0.071 nM; under B13, 0.051 nM; under B14, 0.051 nM.
On the same count and under the same terms, under B15 stands 0.072 nM.
Consider B16, for which the half-maximal effective concentration (EC50) amounted to 0.052 nM.
Take B17: the EC50 turned out to be 0.081 nM.
For the molecule B18, the 50% effective concentration (EC50) was 0.09 nM.
Regarding B19, the EC50 was determined as 0.1 nM.
For B20, the EC50 stood at 0.089 nM.
Still for that read-out and setting: under B21 stands 0.073 nM.
Same read-out and setting: under B22 stands 0.078 nM; under B23, 0.087 nM; under B24, 0.081 nM.

The target in the next test is T2, recombinant human midkine (huMK). Nature of the test: ELISA, plate coated with huMK. The method, then:
as §1
On to B25, for which the EC50 is 0.108 nM.
The same measure, in the same setting: under B1 stands 0.069 nM.
Same read-out and setting: under B2 stands 0.069 nM; under B26, 0.095 nM; under B3, 0.1 nM.
With B4, the EC50 turned out to be 0.05 nM.
With B5, the EC50 was determined as 0.068 nM.
Same read-out and setting: under B27 stands 0.08 nM; under B6, 0.056 nM; under B7, 0.068 nM.
Regarding B8, the EC50 stood at 0.097 nM.
Same read-out and setting: under B9 stands 0.067 nM; under B10, 0.056 nM; under B11, 0.091 nM.
Still for that read-out and setting: under B12 stands 0.058 nM; under B13, 0.065 nM.
Same read-out and setting: under B14 stands 0.073 nM.
Consider B15, for which the EC50 is 0.041 nM.
Still for that read-out and setting: under B16 stands 0.062 nM.
Same read-out and setting: under B17 stands 0.043 nM.
Still for that read-out and setting: under B18 stands 0.093 nM.
For B28, the EC50 amounted to 0.092 nM.
For the molecule B29, the EC50 was determined as 0.093 nM.
The same measure, in the same setting: under B19 stands 0.082 nM.
The same measure, in the same setting: under B20 stands 0.063 nM; under B30, 0.09 nM; under B21, 0.054 nM.
As to B22, the EC50 amounted to 0.053 nM.
For B31, the EC50 turned out to be 0.132 nM.
Still for that read-out and setting: under B23 stands 0.053 nM.
The same measure, in the same setting: under B24 stands 0.05 nM.

These data come from patent publication US20170240628A1 (CELLMID, published 2017).
